As usually defined, the Kd is the equilibrium constant for the complex coming apart.

The target of data set [1] is T1, CD97 (ADGRE5) isoform 1 ectodomain, purified and biotinylated (human, UniProt P48960 21-552, limits assumed, biotinylated in vitro using the BirA enzyme).
T1 construct: the whole entry for isoform 1 is named here; also called CD97 isoform 1; Biotinylated CD97 isoform 1
T1 sequence: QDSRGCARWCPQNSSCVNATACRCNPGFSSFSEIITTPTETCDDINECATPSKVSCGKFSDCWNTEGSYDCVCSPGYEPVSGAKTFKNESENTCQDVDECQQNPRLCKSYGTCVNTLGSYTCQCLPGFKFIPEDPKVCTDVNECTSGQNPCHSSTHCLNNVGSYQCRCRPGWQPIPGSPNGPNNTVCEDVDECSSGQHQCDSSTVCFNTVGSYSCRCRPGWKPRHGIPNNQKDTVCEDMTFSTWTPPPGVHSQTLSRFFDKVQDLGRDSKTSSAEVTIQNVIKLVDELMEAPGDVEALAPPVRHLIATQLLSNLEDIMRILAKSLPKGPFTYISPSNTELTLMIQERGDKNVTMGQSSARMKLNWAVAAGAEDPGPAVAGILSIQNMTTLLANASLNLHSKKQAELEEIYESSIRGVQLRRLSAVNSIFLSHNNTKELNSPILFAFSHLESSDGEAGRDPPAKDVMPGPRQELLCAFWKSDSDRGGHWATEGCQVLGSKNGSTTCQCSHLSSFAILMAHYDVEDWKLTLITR
Put plainly: bead-based binding assay: biotinylated CD97 isoform 1 on streptavidin beads, Fab titrated, flow cytometry MFI, 1:1 fit; EXPERIMENT 2. (In flow cytometry, cells or beads pass a laser one at a time.)

Data set [2] concerns the target T1, CD97 (ADGRE5) isoform 1 ectodomain, …. Put plainly: bead-based binding assay: biotinylated CD97 isoform 1 on streptavidin beads, Fab titrated, flow cytometry MFI, 1:1 fit; EXPERIMENT 1.
Data set [3] relates to AML cells. The data set is described as follows: Cell viability assay (PrestoBlue), cell killing specificity. In kind it is cell-based, human. Particulars: cells with different CD97 levels. The method, then:
(§1) For the cell viability assay, the cells were mixed with ADC (20,000 cells/well), and incubated at 37° C. with 5% CO2 for 3 days. After incubation, cell viability was assessed by PrestoBlue assay (Thermo Fisher), following the manufacturer's protocol. The fluorescence was measured using a FlexStation 3 multi-mode microplate reader (Molecular Devices). Dose-response curves and respective ECso were generated using Prism software (GraphPad). For the cell-killing assay, a 96-well plate was coated with 0.1% poly-D-lysine. The cells were mixed with a diluted Incucyte® Annexin V Green Dye (Sartorius) and ADC (13,500 cells/well), and incubated in an Incucyte live-cell analysis system (Sartorius) at 37° C. with 5% CO2 for 4 days. The percentage of dead cells was analyzed using Incucyte Software (Sartorious).

The test system of data set [4] is OCI-AML3 cells. Put plainly: Cell viability assay (PrestoBlue) of ADC. The note with it: 3 days incubation. In kind it is cell-based, human. The method, then: as §1
Data set [5] deals with human peripheral blood mononuclear cells (PBMCs). The data set is described as follows: Cell-killing assay (Annexin V staining, Incucyte). In kind it is cell-based. The note with it: 4 days incubation. The method, then: as §1
The subject of data set [6] is OCI-AML3 cells. Put plainly: Cell-killing assay (Annexin V staining, Incucyte). In kind it is cell-based, human. The method, then: as §1
Data set [7] concerns the target T1, CD97 (ADGRE5) isoform 1 ectodomain, …. Put plainly: bead-based binding assay: biotinylated CD97 isoform 1 on streptavidin beads, Fab titrated, flow cytometry MFI; EXPERIMENT 1 and EXPERIMENT 2.
The target in data set [8] is EMR2 (EGF-like module-containing mucin-like hormone receptor-like 2) isoform 1 ectodomain, purified and biotinylated (UniProt Q9UHX3). The data set is described as follows: bead-based binding titration (biotinylated antigen on streptavidin beads, flow cytometry), 1:1 fit.
Data set [9] deals with T2, EMR2 (EGF-like module-containing mucin-like hormone receptor-like 2) isoform 4 ectodomain, purified and … (UniProt Q9UHX3-4 24-447, limits assumed, biotinylated in vitro using the BirA enzyme).
T2 construct: extracellular domain; Close homolog of CD97 used as specificity control
T2 sequence (looked up): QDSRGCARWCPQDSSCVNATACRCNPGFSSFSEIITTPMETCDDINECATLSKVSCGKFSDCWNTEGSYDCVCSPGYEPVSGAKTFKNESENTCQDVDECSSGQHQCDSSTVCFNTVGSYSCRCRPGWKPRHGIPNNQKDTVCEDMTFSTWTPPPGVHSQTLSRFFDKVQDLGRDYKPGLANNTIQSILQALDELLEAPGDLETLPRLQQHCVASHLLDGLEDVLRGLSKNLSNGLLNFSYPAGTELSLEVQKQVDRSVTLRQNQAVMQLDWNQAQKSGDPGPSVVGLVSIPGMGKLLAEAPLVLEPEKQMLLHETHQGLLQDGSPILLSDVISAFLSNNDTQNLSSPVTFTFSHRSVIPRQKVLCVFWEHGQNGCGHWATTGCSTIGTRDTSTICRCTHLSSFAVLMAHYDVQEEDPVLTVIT
Described as above.

Data set [10] addresses T3, CD97 (ADGRE5) isoform 2 ectodomain, purified and biotinylated (human, UniProt P48960 21-552, biotinylated in vitro using the BirA enzyme).
T3 construct: the whole entry for isoform 2 is named here; also called CD97 isoform 2
T3 sequence: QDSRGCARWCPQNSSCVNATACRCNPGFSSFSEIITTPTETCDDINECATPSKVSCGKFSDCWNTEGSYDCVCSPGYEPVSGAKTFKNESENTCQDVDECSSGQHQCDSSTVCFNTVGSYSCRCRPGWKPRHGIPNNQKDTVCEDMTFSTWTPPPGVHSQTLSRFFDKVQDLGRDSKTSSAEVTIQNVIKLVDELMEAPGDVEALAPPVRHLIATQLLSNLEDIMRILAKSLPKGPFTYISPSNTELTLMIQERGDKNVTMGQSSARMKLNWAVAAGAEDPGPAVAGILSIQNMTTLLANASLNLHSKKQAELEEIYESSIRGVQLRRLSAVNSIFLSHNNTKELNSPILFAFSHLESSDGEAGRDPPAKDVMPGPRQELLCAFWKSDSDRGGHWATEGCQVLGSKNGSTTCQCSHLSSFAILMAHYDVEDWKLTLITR
The description is as above.

For data set [11], the target named is T1, CD97 (ADGRE5) isoform 1 ectodomain, …. The description is as above.
Data set [12] concerns the target T2, EMR2 (EGF-like module-containing …). The data set is described as follows: bead-based binding titration (biotinylated antigen on streptavidin beads, flow cytometry) [Continued].
In data set [13] the target is T3, CD97 (ADGRE5) isoform 2 ectodomain, …. The data set is described as above.
In data set [14] the target is T1, CD97 (ADGRE5) isoform 1 ectodomain, …. The data set is described as follows: bead-based binding titration (biotinylated antigen on streptavidin beads, flow cytometry), 1:1 fit [Continued].
For data set [15], the target named is T3, CD97 (ADGRE5) isoform 2 ectodomain, …. Described as above.

Entries after “also recorded” stand apart in the source; their conditions may differ.

B1: N100bHE (Fab, V domains shown)
VH: EVQLVESGGGLVQPGGSLRLSCAASGFTISSYSIHWVRQAPGKGLEWVASISPYYGSTSYADSVKGRFTISADTSKNTAYLQMNSLRAEDTAVYYCARSWYYYEQEPYWYQKEEQALDYWGQGTLVTVSS
VL: DIQMTQSPSSLSASVGDRVTITCRASQSVSSAVAWYQQKPGKAPKLLIYSASSLYSGVPSRFSGSRSGTDFTLTISSLQPEDFATYYCQQSVYSPVTFGQGTKVEIK
notes: also called A8 N100bHE; Antibody Clone A8 N100bHE; copies: 1 + 1
For the molecule B1, the dissociation constant Kd in data set [1] came to 150 nM; in data set [2], 160 nM.

B2: A8-MMAF (conjugate)
VH: EVQLVESGGGLVQPGGSLRLSCAASGFTISSYSIHWVRQAPGKGLEWVASISPYYGSTSYADSVKGRFTISADTSKNTAYLQMNSLRAEDTAVYYCARSWYYYEQNPYWYQKEEQALDYWGQGTLVTVSS
VL: DIQMTQSPSSLSASVGDRVTITCRASQSVSSAVAWYQQKPGKAPKLLIYSASSLYSGVPSRFSGSRSGTDFTLTISSLQPEDFATYYCQQSVYSPVTFGQGTKVEIKRTV
modifications: non-natural residues
Turning to B2, the “cell killing specificity versus cell-surface CD97 level” value in data set [3] is given as “correlated with the cell-surface CD97 level; also recorded: inhibited cell growth only for the cells expressing a high level of CD97”. In addition, in data set [4], the “cell killing (cell viability)” value was “potently killed OCI-AML3 cells in a dose-dependent manner; also recorded: potent cell-killing effect on OCI-AML3 cells”.

B3: A8S293C-PBD (conjugate)
VH: EVQLVESGGGLVQPGGSLRLSCAASGFTISSYSIHWVRQAPGKGLEWVASISPYYGSTSYADSVKGRFTISADTSKNTAYLQMNSLRAEDTAVYYCARSWYYYEQNPYWYQKEEQALDYWGQGTLVTVSS
VL: DIQMTQSPSSLSASVGDRVTITCRASQSVSSAVAWYQQKPGKAPKLLIYSASSLYSGVPSRFSGSRSGTDFTLTISSLQPEDFATYYCQQSVYSPVTFGQGTKVEIKRTV
As to B3, in data set [5], the “killing of PBMC cells” value is “did not kill PBMC cells”. In [6] (4 days incubation), the “cell-killing effect (cell death, Annexin V)” value is “potent cell-killing effect”. For the same molecule, the “specificity of cell killing” value in [6] (OCI-AML3 (hCD97 high) versus ExpiCHO (hCD97-null), 4 days) is on record as “specifically killed cells expressing high levels of CD97”.

B4: W100eHA (Fab, V domains shown)
VH: EVQLVESGGGLVQPGGSLRLSCAASGFTISSYSIHWVRQAPGKGLEWVASISPYYGSTSYADSVKGRFTISADTSKNTAYLQMNSLRAEDTAVYYCARSWYYYEQNPYAYQKEEQALDYWGQGTLVTVSS
VL: DIQMTQSPSSLSASVGDRVTITCRASQSVSSAVAWYQQKPGKAPKLLIYSASSLYSGVPSRFSGSRSGTDFTLTISSLQPEDFATYYCQQSVYSPVTFGQGTKVEIK
notes: also called A8 W100eHA; Antibody Clone A8 W100eHA; copies: 1 + 1
On to B4, for which the binding result in data set [7] is recorded as “no binding”.

B5: Fab 2V10 (Fab, V domains shown)
VH: EVQLVESGGGLVQPGGSLRLSCAASGFTISSSSIHWVRQAPGKGLEWVAYIYPSSGSTSYADSVKGRFTISADTSKNTAYLQMNSLRAEDTAVYYCARPWYYSTFNKKWWDYQGLDYWGQGTLVTVSS
VL: DIQMTQSPSSLSASVGDRVTITCRASQSVSSAVAWYQQKPGKAPKLLIYSASSLYSGVPSRFSGSRSGTDFTLTISSLQPEDFATYYCQQSWWDPITFGQGTKVEIKR
notes: second discovery campaign; biotinylated Fab in the bead assay; same clone as m10 in Fab format; also called Antibody Clone 2V10
For B5, the equilibrium dissociation constant (Kd) was 1.6 nM in [8], 1.5 nM in data set [9], 3 nM in data set [10] and 2.7 nM in [11].

B6: Antibody clone C27, Fab format (Fab, V domains shown)
VH: EVQLVESGGGLVQPGGSLRLSCAASGFTLSSSSIHWVRQAPGKGLEWVASIYSYYGSTYYADSVKGRFTISADTSKNTAYLQMNSLRAEDTAVYYCARYRGNMYYWESWYGSYWALDYWGQGTLVTVSS
VL: DIQMTQSPSSLSASVGDRVTITCRASQSVSSAVAWYQQKPGKAPKLLIYSASSLYSGVPSRFSGSRSGTDFTLTISSLQPEDFATYYCQQSSSSLITFGQGTKVEIKR
For B6, the binding result in data set [12] and in [13] was “no binding (tested: 50 nM)” in each case. For the same molecule, the Kd in data set [14] is 16 nM.

B7: Fab D25 (Fab, V domains shown)
VH: EVQLVESGGGLVQPGGSLRLSCAASGFTFSSSSIHWVRQAPGKGLEWVASISPYYGSTSYADSVKGRFTISADTSKNTAYLQMNSLRAEDTAVYYCARKLEWGMFFWSPYFRALDYWGQGTLVTVSS
VL: DIQMTQSPSSLSASVGDRVTITCRASQSVSSAVAWYQQKPGKAPKLLIYSASSLYSGVPSRFSGSRSGTDFTLTISSLQPEDFATYYCQQSSSSLITFGQGTKVEIKR
notes: first discovery campaign; also called Antibody Clone D25
Turning to B7, the dissociation constant Kd in data set [15] and in [14] was 14 nM throughout.

B8: Fab 2W1 (Fab, V domains shown)
VH: EVQLVESGGGLVQPGGSLRLSCAASGFTVSSSSIHWVRQAPGKGLEWVAYISSSSGSTYYADSVKGRFTISADTSKNTAYLQMNSLRAEDTAVYYCARDFYFGSYYSFGWGLDYWGQGTLVTVSS
VL: DIQMTQSPSSLSASVGDRVTITCRASQSVSSAVAWYQQKPGKAPKLLIYSASSLYSGVPSRFSGSRSGTDFTLTISSLQPEDFATYYCQQDSSYPITFGQGTKVEIKR
notes: second discovery campaign; biotinylated Fab in the bead assay; also called Antibody Clone 2W1
On to B8, for which the Kd in data set [8] is 47 nM; in [9], 52 nM; in data set [10], 18 nM; in [11] it was 18 nM.

For the origin of these results see patent US20250051474A1, “ANTI-CD97 ANTIBODIES AND ANTIBODY-DRUG CONJUGATES” (New York University, priority 2023, published 2025).
